B1: EZ-23: C277S-EPEPE-Link1-EPEPE-CXH104-H6, SEQ ID NO: 447 (protein)
chain: MAFFDLPLEELKKYRPERYEEKDFDEFWEETLAESEKFPLDPVFERMESHLKTVEAYDVTFSGYRGQRIKGWLLVPKLEEEKLPCVVQYIGYNGGRGFPHDWLFWPSMGYICFVMDTRGQGSGWLKGDTPDYPEGPVDPQYPGFMTRGILDPRTYYYRRVFTDAVRAVEAAASFPQVDQERIVIAGGSQGGGIALAVSALSKKAKALLCDVPFLCHFRRAVQLVDTHPYAEITNFLKTHRDKEEIVFRTLSYFDGVNFAARAKIPALFSVGLMDNISPPSTVFAAYNYYAGPKEIRIYPYNNHEGGGSFQAVEQVKFLKKLFEKGEPEGPGSGGAGSPGSAGGPGSEPERMLSRILRMFVRILKRERLSQVRGLFVHHHHHH
B2: EZ-20: C277S-EPEPEPEPEPE-link1-CXH201-H6, SEQ ID NO: 444 (protein)
chain: MAFFDLPLEELKKYRPERYEEKDFDEFWEETLAESEKFPLDPVFERMESHLKTVEAYDVTFSGYRGQRIKGWLLVPKLEEEKLPCVVQYIGYNGGRGFPHDWLFWPSMGYICFVMDTRGQGSGWLKGDTPDYPEGPVDPQYPGFMTRGILDPRTYYYRRVFTDAVRAVEAAASFPQVDQERIVIAGGSQGGGIALAVSALSKKAKALLCDVPFLCHFRRAVQLVDTHPYAEITNFLKTHRDKEEIVFRTLSYFDGVNFAARAKIPALFSVGLMDNISPPSTVFAAYNYYAGPKEIRIYPYNNHEGGGSFQAVEQVKFLKKLFEKGEPEPEPEPEPEGPGSGGAGSPGSAGGPGSWKTKKILLSRTRRIMRQVVRSVMHKIWHHHHHH
B3: EZ-24: C277S-…-Link1-CXH104-H6, SEQ ID NO: 448 (protein)
chain: MAFFDLPLEELKKYRPERYEEKDFDEFWEETLAESEKFPLDPVFERMESHLKTVEAYDVTFSGYRGQRIKGWLLVPKLEEEKLPCVVQYIGYNGGRGFPHDWLFWPSMGYICFVMDTRGQGSGWLKGDTPDYPEGPVDPQYPGFMTRGILDPRTYYYRRVFTDAVRAVEAAASFPQVDQERIVIAGGSQGGGIALAVSALSKKAKALLCDVPFLCHFRRAVQLVDTHPYAEITNFLKTHRDKEEIVFRTLSYFDGVNFAARAKIPALFSVGLMDNISPPSTVFAAYNYYAGPKEIRIYPYNNHEGGGSFQAVEQVKFLKKLFEKGEPEPEPEGPGSGGAGSPGSAGGPGSRMLSRILRMFVRILKRERLSQVRGLFVHHHHHH
B4: EZ-21: C277S-EPEPE-link1-EPEPE-CXHG2-H6, SEQ ID NO: 445 (protein)
chain: MAFFDLPLEELKKYRPERYEEKDFDEFWEETLAESEKFPLDPVFERMESHLKTVEAYDVTFSGYRGQRIKGWLLVPKLEEEKLPCVVQYIGYNGGRGFPHDWLFWPSMGYICFVMDTRGQGSGWLKGDTPDYPEGPVDPQYPGFMTRGILDPRTYYYRRVFTDAVRAVEAAASFPQVDQERIVIAGGSQGGGIALAVSALSKKAKALLCDVPFLCHFRRAVQLVDTHPYAEITNFLKTHRDKEEIVFRTLSYFDGVNFAARAKIPALFSVGLMDNISPPSTVFAAYNYYAGPKEIRIYPYNNHEGGGSFQAVEQVKFLKKLFEKGEPEPEGPGSGGAGSPGSAGGPGSEPEPEPLWRRITKRKLVRPVATLMWYWFTSKRHHHHHH
B5: EZ-26: C277S-EPEPEPEPEPE-Link1-CXHG102-H6, SEQ ID NO: 450 (protein)
chain: MAFFDLPLEELKKYRPERYEEKDFDEFWEETLAESEKFPLDPVFERMESHLKTVEAYDVTFSGYRGQRIKGWLLVPKLEEEKLPCVVQYIGYNGGRGFPHDWLFWPSMGYICFVMDTRGQGSGWLKGDTPDYPEGPVDPQYPGFMTRGILDPRTYYYRRVFTDAVRAVEAAASFPQVDQERIVIAGGSQGGGIALAVSALSKKAKALLCDVPFLCHFRRAVQLVDTHPYAEITNFLKTHRDKEEIVFRTLSYFDGVNFAARAKIPALFSVGLMDNISPPSTVFAAYNYYAGPKEIRIYPYNNHEGGGSFQAVEQVKFLKKLFEKGEPEPEPEPEPEPEPEGPGSGGAGSPGSAGGPGSLRFLARRFLKLRRARKWWNAWKVWVTRHHHHHH
B6: EZ-19: C277S-EPEPE-link1-EPEPE-CXH201-H6, SEQ ID NO: 443 (protein)
chain: MAFFDLPLEELKKYRPERYEEKDFDEFWEETLAESEKFPLDPVFERMESHLKTVEAYDVTFSGYRGQRIKGWLLVPKLEEEKLPCVVQYIGYNGGRGFPHDWLFWPSMGYICFVMDTRGQGSGWLKGDTPDYPEGPVDPQYPGFMTRGILDPRTYYYRRVFTDAVRAVEAAASFPQVDQERIVIAGGSQGGGIALAVSALSKKAKALLCDVPFLCHFRRAVQLVDTHPYAEITNFLKTHRDKEEIVFRTLSYFDGVNFAARAKIPALFSVGLMDNISPPSTVFAAYNYYAGPKEIRIYPYNNHEGGGSFQAVEQVKFLKKLFEKGEPEPEGPGSGGAGSPGSAGGPGSEPEPEWKTKKILLSRTRRIMRQVVRSVMHKIWHHHHHH
B7: EZ-22: C277S-EPEPEPEPEPE-Link1-CXHG2-H6, SEQ ID NO: 446 (protein)
chain: MAFFDLPLEELKKYRPERYEEKDFDEFWEETLAESEKFPLDPVFERMESHLKTVEAYDVTFSGYRGQRIKGWLLVPKLEEEKLPCVVQYIGYNGGRGFPHDWLFWPSMGYICFVMDTRGQGSGWLKGDTPDYPEGPVDPQYPGFMTRGILDPRTYYYRRVFTDAVRAVEAAASFPQVDQERIVIAGGSQGGGIALAVSALSKKAKALLCDVPFLCHFRRAVQLVDTHPYAEITNFLKTHRDKEEIVFRTLSYFDGVNFAARAKIPALFSVGLMDNISPPSTVFAAYNYYAGPKEIRIYPYNNHEGGGSFQAVEQVKFLKKLFEKGEPEPEPEPEPEGPGSGGAGSPGSAGGPGSPLWRRITKRKLVRPVATLMWYWFTSKRHHHHHH
B8: EZ-25: C277S-EPEPE-Link1-EPEPE-CXHG102-H6, SEQ ID NO: 449 (protein)
chain: MAFFDLPLEELKKYRPERYEEKDFDEFWEETLAESEKFPLDPVFERMESHLKTVEAYDVTFSGYRGQRIKGWLLVPKLEEEKLPCVVQYIGYNGGRGFPHDWLFWPSMGYICFVMDTRGQGSGWLKGDTPDYPEGPVDPQYPGFMTRGILDPRTYYYRRVFTDAVRAVEAAASFPQVDQERIVIAGGSQGGGIALAVSALSKKAKALLCDVPFLCHFRRAVQLVDTHPYAEITNFLKTHRDKEEIVFRTLSYFDGVNFAARAKIPALFSVGLMDNISPPSTVFAAYNYYAGPKEIRIYPYNNHEGGGSFQAVEQVKFLKKLFEKGEPEPEPEGPGSGGAGSPGSAGGPGSEPEPEPELRFLARRFLKLRRARKWWNAWKVWVTRHHHHHH

Experiments:
[1] = Peracetic acid generated in solution by C277S CXH fusions (Example 9); settings: 0.5 μM enzyme, sarkosyl buffer, 100 mM triacetin, 100 mM H2O2, pH 7.2, 10 min, 37° C.
[2] = Peracetic acid from C277S CXH fusions exposed to hydroxyapatite discs (Example 9); settings: no enzyme control subtracted; for Peracetic acid (ppm) Exposed to Hydroxyapatite, Disc: disc-bound enzyme, 100 mM triacetin, 100 mM H2O2, 30 min, 37° C.; for Peracetic acid (ppm) Exposed to Hydroxyapatite, Supernatant: unbound enzyme in supernatant after 10 μM enzyme on disc

| Molecule | Peracetic acid (ppm) In Solution [1] | Peracetic acid (ppm) Exposed to Hydroxyapatite, Disc [2] | Peracetic acid (ppm) Exposed to Hydroxyapatite, Supernatant [2] |
| --- | --- | --- | --- |
| B1 | 2212 ppm | 4463 ppm | 1712 ppm |
| B2 | 2265 ppm | 2795 ppm | 1229 ppm |
| B3 | 2951 ppm | 3453 ppm | 719 ppm |
| B4 | 2764 ppm | 3109 ppm | 1581 ppm |
| B5 | 2273 ppm | 1849 ppm | 1636 ppm |
| B6 | 4088 ppm | 3136 ppm | 1665 ppm |
| B7 | 2305 ppm | 2495 ppm | 477 ppm |
| B8 | 1703 ppm | 1791 ppm | 1029 ppm |

— patent US8663616B2, “Enzymatic peracid generation for use in oral care products” (E I du Pont de Nemours and Company, priority 2010, dated 2014)
